Values quoted from earlier work, collected in article PMC4899099.

Target: Carboxypeptidase E (UniProt P04836)
Chain of UniProt P04836 (P04836 42-475): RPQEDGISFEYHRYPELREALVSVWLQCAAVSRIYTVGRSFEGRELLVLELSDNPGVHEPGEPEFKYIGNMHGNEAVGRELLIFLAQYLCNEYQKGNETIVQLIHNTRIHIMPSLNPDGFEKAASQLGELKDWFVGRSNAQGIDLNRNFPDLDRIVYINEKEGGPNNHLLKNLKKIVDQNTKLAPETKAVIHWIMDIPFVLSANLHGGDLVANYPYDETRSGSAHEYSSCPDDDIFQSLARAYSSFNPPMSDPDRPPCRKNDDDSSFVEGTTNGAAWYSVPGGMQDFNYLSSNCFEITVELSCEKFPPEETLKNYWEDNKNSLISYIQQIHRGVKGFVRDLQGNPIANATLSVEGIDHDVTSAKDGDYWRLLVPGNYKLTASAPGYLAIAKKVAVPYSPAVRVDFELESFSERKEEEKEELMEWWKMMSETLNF

## N-POMC(1-26) 1-26 (from UniProt P01190)
  Kd: 6 µM
